{"source": "paper PMC8609364", "about": "“A Selective Tether Recruits Activated Response Regulator CheB to Its Chemoreceptor Substrate” (mBio, 2021)", "key": {"[1]": {"biological_target": "Tar4QΔpp-6H L378C, E. coli Tar lacking the carboxyl-terminal pentapeptide, all-glutaminyl form, homodimer in Nanodiscs (E. coli) (UniProt P07017)", "experiment": "BLI; BLItz; biotinylated Tar homodimers in Nanodiscs held on an avidin sensor tip, CheB-P* or CheB-P*-I in solution; 50 mM Tris-HCl pH 7.5, 10% glycerol, 5 mM MgCl2, 50 mM KCl, 2% BSA, no DTT; global fit, apparent rate constants, KD calculated from kon and koff"}, "[2]": {"biological_target": "Tar4E L378C, E. coli aspartate chemoreceptor Tar, all-glutamyl form with carboxyl-terminal pentapeptide, homodimer in Nanodiscs (E. coli) (UniProt P07017)", "experiment": "BLI; BLItz; biotinylated Tar homodimers in Nanodiscs held on an avidin sensor tip, CheB-P* or CheB-P*-I in solution; 50 mM Tris-HCl pH 7.5, 10% glycerol, 5 mM MgCl2, 50 mM KCl, 2% BSA, no DTT; global fit, apparent rate constants, KD calculated from kon and koff"}, "[3]": {"biological_target": "Tar4EΔpp-6H L378C, E. coli Tar lacking the carboxyl-terminal pentapeptide, all-glutamyl form, homodimer in Nanodiscs (E. coli) (UniProt P07017)", "experiment": "BLI; BLItz; biotinylated Tar homodimers in Nanodiscs held on an avidin sensor tip, CheB-P* or CheB-P*-I in solution; 50 mM Tris-HCl pH 7.5, 10% glycerol, 5 mM MgCl2, 50 mM KCl, 2% BSA, no DTT; global fit, apparent rate constants, KD calculated from kon and koff"}, "[4]": {"biological_target": "Tar4Q L378C, E. coli aspartate chemoreceptor Tar, all-glutaminyl form with carboxyl-terminal pentapeptide, homodimer in Nanodiscs (E. coli) (UniProt P07017)", "experiment": "BLI; BLItz; biotinylated Tar homodimers in Nanodiscs held on an avidin sensor tip, CheB-P* or CheB-P*-I in solution; 50 mM Tris-HCl pH 7.5, 10% glycerol, 5 mM MgCl2, 50 mM KCl, 2% BSA, no DTT; global fit, apparent rate constants, KD calculated from kon and koff"}, "[5]": {"tested_on": "CheB binding to pentapeptide", "parameters": "method as in PMID 11435446", "conditions": "ref [11]; cited from earlier work"}, "CheB [6]": {"tested_on": "CheB", "conditions": "position 132; ref [11]; cited from earlier work"}, "CheB [7]": {"biological_target": "CheB", "conditions": "low-activity, unphosphorylated CheB from E. coli; ref [21]; read-out: dissociation constants; cited from earlier work", "from_the_text": "(§1) CheB is a two-domain protein, with an amino-terminal response regulator domain attached by a linker sequence to a carboxyl-terminal catalytic domain ([17]) (Fig. 1B). Phosphorylation of the response regulator domain by the chemotaxis histidine kinase creates a high-activity form of the methylesterase ([6]), shifting interaction between the two domains to an “open” conformation that relieves occlusion of the active site by the regulatory amino-terminal domain ([18], [19]). The enzyme binds its substrate chemoreceptor side chains with the surfaces surrounding its active site ([20]). In contrast, ..."}, "unphosphorylated CheB [8]": {"biological_target": "unphosphorylated CheB", "conditions": "equilibrium dialysis, free pentapeptide, ref [21], read-out: equilibrium dissociation constant; cited from earlier work"}, "unphosphorylated CheB [9]": {"biological_target": "unphosphorylated CheB", "conditions": "isothermal titration calorimetry, free pentapeptide, ref [21], read-out: equilibrium dissociation constant; cited from earlier work", "procedure": "(§2) We measured binding of the low-activity, unphosphorylated form of CheB to the NWETF pentapeptide tethered to the sensor surface via a linker or in its native position at the carboxyl terminus of Tar4E or Tar4Q ([23]). Equilibrium dissociation constants were essentially the same for all conditions, 190 ± 85 μM for pentapeptide alone, and 230 ± 70 and 160 ± 30 for the pentapeptide on Tar4E or Tar4Q, respectively (Table 1). Within the error of the measurements, these values corresponded to those previously determined for free pentapeptide binding to unphosphorylated CheB by isothermal titration c ..."}, "CheB [10]": {"biological_target": "CheB", "experiment": "Binding of CheB to NWETF pentapeptide tethered to the sensor surface via a linker (biolayer interferometry)", "parameters": "species or system E. coli", "conditions": "BLI, low-activity, unphosphorylated CheB, read-out: Equilibrium dissociation constant, pentapeptide alone", "procedure": "as §2, with “1).” for “1). Within the error of the measurements, these values corresponded to those previously determined for free pentapeptide binding to unphosphorylated CheB by isothermal titration c ...”\nKinetics of CheB association and dissociation with Nanodisc-embedded Tar biotinylated at L378C were determined using biolayer interferometry ([22], [23]) as measured by a BLItz instrument (ForteBio, Menlo Park, CA, USA) and described in reference. Representative time course experiments are shown in Fig. S1 in the supplemental material. Measurements for CheB-P* and CheB-P*-I were in 50 mM Tris-HCl (pH 7.5), 10% (wt/vol) glycerol, 5 mM MgCl2, 50 mM KCl, and 2% (wt/vol) bovine serum albumin (BSA). Measurements for CheB and CheBc were in the same solution plus 2 mM dithiothreitol (DTT).\nUsing BLItz software, response curves were fit globally to a 1:1 binding model to yield apparent association rate constants (kon) and dissociation rate constants (koff). […]"}, "[11]": {"conditions": "low-activity, unphosphorylated CheB; ref [16]; read-out: dissociation constant; cited from earlier work", "from_the_text": "as §1"}, "[12]": {"biological_target": "T1, methylesterase/deamidase CheB from E. coli, low-activity, unphosphorylated form (E. coli, UniProt P07330 1-349)", "T1 construct": "CheB methylesterase/deamidase of E. coli, unphosphorylated, from plasmid pCW/cheB; measured with 2 mM DTT in the buffer; also called low-activity CheB; unmodified CheB; source: E. coli K-12 RP3098 with pCW/cheB, purified", "T1 sequence (looked up)": "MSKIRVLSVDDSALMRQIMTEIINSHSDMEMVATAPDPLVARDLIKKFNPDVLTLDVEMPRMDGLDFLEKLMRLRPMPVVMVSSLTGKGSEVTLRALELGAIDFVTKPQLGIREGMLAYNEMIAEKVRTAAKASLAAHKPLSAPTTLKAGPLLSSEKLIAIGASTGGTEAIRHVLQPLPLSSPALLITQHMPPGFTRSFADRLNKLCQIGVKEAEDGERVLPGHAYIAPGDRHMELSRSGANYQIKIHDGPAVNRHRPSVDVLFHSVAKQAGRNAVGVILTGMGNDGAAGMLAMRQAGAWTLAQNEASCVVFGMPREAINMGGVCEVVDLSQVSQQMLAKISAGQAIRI", "experiment": "BLI; BLItz; NWETF pentapeptide tethered to the sensor surface via a linker, CheB in solution; apparent rate constants, KD calculated from kon and koff", "conditions": "both partners purified"}}, "note": "Read-outs that look alike come from different tables or passages of the source. Ends that are not written are not given here.", "data": [{"molecule": "CheB-P*, phosphorylation mimic of Salmonella CheB D56C/C207S/C309S modified with thiophosphate (from UniProt P04042 1-349) (enzyme)", "values": [{"measurement": "Kd", "setting": "[1]", "value": 200, "unit": "µM"}, {"measurement": "Kd", "setting": "[2]", "value": 13, "unit": "µM"}, {"measurement": "dwell time (1/koff)", "setting": "[2]", "value": 3, "unit": "s"}, {"measurement": "Kd", "setting": "[3]", "value": 200, "unit": "µM"}, {"measurement": "Kd", "setting": "[4]", "value": 13, "unit": "µM"}, {"measurement": "dwell time (1/koff)", "setting": "[4]", "value": 3, "unit": "s"}]}, {"molecule": "peptide from CheB residues 130 through 140 (AAKASLAAHKP; UniProt P07330 130-140, looked up, fragment)", "values": [{"measurement": "reduction of binding of intact enzyme to pentapeptide", "setting": "[5]", "value": "reduced binding of intact enzyme to pentapeptide"}]}, {"molecule": "CheB-P*-I, enzymatically inactive phosphorylation mimic, Salmonella CheB D56C/S164A/C207S/C309S modified with thiophosphate (from UniProt P04042 1-349) (enzyme)", "values": [{"measurement": "fold reduction of KA against CheB-P*", "setting": "[2]", "value": 2.5, "unit": "fold"}, {"measurement": "fold reduction of KA against CheB-P*", "setting": "[4]", "value": 2.5, "unit": "fold"}]}, {"molecule": "NWETF [NWETF]", "values": [{"measurement": "protection of intact CheB from limited proteolysis", "setting": "CheB [6]", "value": "protected intact CheB from limited proteolysis at position 132"}, {"measurement": "Kd", "setting": "CheB [7]", "value": "130 to 160", "unit": "µM"}, {"measurement": "Kd", "setting": "unphosphorylated CheB [8]", "value": 130, "unit": "µM"}, {"measurement": "Kd", "setting": "unphosphorylated CheB [9]", "value": 160, "unit": "µM"}, {"measurement": "Kd", "setting": "CheB [10]", "value": "190 ± 85", "unit": "µM"}]}, {"molecule": "CheB from Pseudomonas aeruginosa (protein, UniProt O87125 1-368, looked up) Protein-glutamate …: MAVKVLVVDDSGFFRRRVSEILSADGQIQVVGTGTNGREAIEQALALRPDVITMDYEMPLMDGITAVRNIMQRCPTPVLMFSSLTHEGARVTLDALDAGAVDYLPKNFEDISRNPDKVRQLLCEKVLTIARSNRRSISLPPLPSATSSSHAPASSSSVGASARVGAGASPAPASTSAAPKRKAYRLVAIGTSTGGPVALQRVLTQLPANFPAPLVLIQHMPAAFTKAFAERLDKLCRINVKEAEDGDILRPGLALLAPGGKQMMVDGRGTVRILPGDERLNYKPCVDVTFGSAAKAYNDKVLAVVLTGMGADGREGARLLKQGGSQVWAQDEASCVIYGMPMAVVKANLADAVYGLDDIGRHLVEACQ", "values": [{"measurement": "Kd", "setting": "[11]", "value": "~90", "unit": "µM"}]}, {"molecule": "NWETF (also: tethered to sensor surface via a linker (not described), carboxyl-terminal pentapeptide of the E. coli chemoreceptor Tar; also called pentapeptide alone)", "note": "[NWETF pentapeptide tethered to the sensor surface via a linker]", "values": [{"measurement": "Kd", "setting": "[12]", "value": 190, "unit": "µM"}]}]}
